Results on 1 molecule are retold here after paper PMC5389604.

One may read the Kd as the equilibrium constant for the complex coming apart. A high value points to a looser complex.

In the data set the target is T1, RarA (MgsA) (Escherichia coli, UniProt P0AAZ4 1-447).
T1 sequence: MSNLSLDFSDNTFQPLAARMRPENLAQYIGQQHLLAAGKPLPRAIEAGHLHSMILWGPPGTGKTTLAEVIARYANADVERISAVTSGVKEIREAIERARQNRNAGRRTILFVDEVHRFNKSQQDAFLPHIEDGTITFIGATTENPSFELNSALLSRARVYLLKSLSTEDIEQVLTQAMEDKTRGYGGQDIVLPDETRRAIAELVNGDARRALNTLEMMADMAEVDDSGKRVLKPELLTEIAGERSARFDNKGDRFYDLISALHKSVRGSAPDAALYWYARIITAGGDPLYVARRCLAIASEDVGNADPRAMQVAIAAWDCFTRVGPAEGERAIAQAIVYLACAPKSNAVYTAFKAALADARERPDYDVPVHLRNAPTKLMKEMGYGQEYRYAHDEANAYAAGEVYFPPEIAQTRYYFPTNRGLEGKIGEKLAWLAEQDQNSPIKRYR
Kind of data set: fluorescence polarization.

Consider ACACAGAAGGAGACGG (ssDNA) [oANP031_F 16 nt ssDNA], for which the dissociation constant Kd worked out at 890 ± 28 nM.
